Consider 83 variants from the RNAGym collection of RNA variant scans (doi:10.1073/pnas.2313332121).

B1: TPR t1 (parent)
chain: GACCAAUCUGCCCUCAGAGCUCGAGAACAUCUUCGGAUGCAGAGGAGGCAGGCUUCGGUGGCGCGAUAGCGCCAACGUCCUCAACCUCCAAUGCAUCCCACCACAUGAUGAUGCCUGAAGAGCCUUGGUUUUUUG

Variants of B1 are the subject of the series. Description: polymerase ribozyme fitness, log enrichment relative to wild type (log ratio); higher = more active; in vitro selection for triplet polymerase activity. A digest of the protocol: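 A heterodimeric triplet polymerase ribozyme had each of its subunits mutagenized by PCR into a library, which was transcribed. One round of in vitro selection, done in triplicate, annealed each library with a biotinylated primer, its partner subunit and triplets, then incubated it frozen at −7 °C before gel excision of extended constructs, streptavidin-bead capture and RT-PCR. Fitness is the logarithm of genotype enrichment relative to wild-type enrichment, based on Illumina sequencing of inputs and outputs and inverse-variance-weighted replicate averages. A base-2 logarithm is used, and genotypes were kept only with ≥10 input reads and ≥1 read per output.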
Take C49G G110A A121C: the “polymerase ribozyme fitness (log ratio)” value was -1.76.
With C4A A5G A111C the figure was -0.259; with A37C G128C, -3.32; with A16U C49A A121U U129G, -0.0419.
With A43G G60A G107C C114U G120U U133G the figure was -3.85.
With U54A C88G G135U the figure was -1.43; with C28A U32C, -3.9.
As for G36A A41C A43U C88A A105C C123G, the “polymerase ribozyme fitness (log ratio)” value is -5.88.
Consider C28G C101U, for which the “polymerase ribozyme fitness (log ratio)” value is -3.08.
With G42C C85G the figure was -3.39; with G42C A50U, -3.32; with A5G G57U U78G U106A G110A, -1.97.
With A41C C56U C114A A121G the figure was -1.11; with C11U A84U C89U, -1.61; with G42U C53G C56A, -1.17.
For A27C C82U U96G U125A U129G the value was -5.35.
With G44U U54C G113C, the “polymerase ribozyme fitness (log ratio)” value is -3.08.
For A2U A18U C124A U129G the value was -2.31; for G10U G93U U129C, -1.98; for C3G G110U, -2.82.
With C15U A41C G45A G71C U112A G117A G127C the figure was -4.04; with G25U A26G A46U, -3.61.
For the variant G57C C72U U129A, the “polymerase ribozyme fitness (log ratio)” value was -1.29.
With C22A G63A C94A A100U C115A the figure was -5.85; with A16G G48C G60A, -1.87; with C13U A66U U116C, -0.492.
For C89A A95C the value was -3.6; for G48C C56G C62U U78C, -1.82; for C8G C15U G48C G71A C124G, 0.113.
Consider A27C A68G G71U, for which the “polymerase ribozyme fitness (log ratio)” value was -6.32.
Regarding A6G A41U C85G A119U U125G, the “polymerase ribozyme fitness (log ratio)” value was -6.15.
With G51U C56A C62U U92A C101U the figure was -6.34.
For the variant G10A C15G A16G G63A C80U G113C, the “polymerase ribozyme fitness (log ratio)” value was -4.34.
With A41G C49G U55A A111C the figure was -1.63.
As to U33G C34G G52U, the “polymerase ribozyme fitness (log ratio)” value was -6.73.
For U14A A16U A50U C72A U81C the value was -5.83.
For G45U A50U C53A C114U the value was -3.7; for C8U U130C, 0.805; for C79U C114U, -2.32.
Take U7G U14C A29G G42U U59A C123U: the “polymerase ribozyme fitness (log ratio)” value was -3.3.
With U112C G127A the figure was 0.907.
With C4G C73U C101A U129A the figure was -1.48; with C56G G71A G110U G117A, -5.02.
Regarding G113A U125A, the “polymerase ribozyme fitness (log ratio)” value was -1.24.
With C62U G117C G128A the figure was -6.43; with C79A C94A G117U, -4.86.
With C8A G17C G63U U96C C97A G113U the figure was -6.74.
For C22A C64U, the “polymerase ribozyme fitness (log ratio)” value was -4.37.
For G52U U67G C101U G120C the value was -6.94.
With G52C G63C U87C the figure was -0.694.
C22U G52C: the “polymerase ribozyme fitness (log ratio)” value is -4.83.
For C28U A46U C94G the value was -4.44.
With A5G A26C C72U U87A G120U U130A the figure was -3.99; with C4G C28A C40G G48U C49G G63A U96G C114G U116G, -6.86.
Regarding G47A G58C G71U C79U U130C, the “polymerase ribozyme fitness (log ratio)” value was -0.309.
For G60A C82U U131A the value was -0.161; for C4U U96A U106A G122A, -0.892.
With G58C G71U C82G C88G the figure was -2.93.
For C4U G71A G77A the value was -2.96; for C3A U87A C94U U106G C115U G120C, -5.04; for A74U U112A G113C A118C, -3.21.
As for C8G G36C C56A C70U U96C A119U, the “polymerase ribozyme fitness (log ratio)” value was -5.
With U38C G63A G77C U131G the figure was -2.97; with A5U A90G C123U, 0.65.
C12U A29G G45U C56U C89A A91U G110A G127U: the “polymerase ribozyme fitness (log ratio)” value was -5.23.
For U9G G93A G128A U129G the value was -1.96.
With G63U C115A the figure was -1.22; with C15U G39A G60A G117C G120A, -4.8; with A2U C20A G69U C70G, -5.15.
For C86G C101U the value was -0.616; for C73U A84C U92G U112A, -2.54.
As for A43U U59A A66U, the “polymerase ribozyme fitness (log ratio)” value was -4.54.
With C20A C22U G42U G113U U132A the figure was -3.71; with U9A A27C G71A G117C, -6.31.
For C72A C94A the value was -0.415; for A16G A37U G71U A90G, -1.9; for C89G C102A C114A, -5.12.
With U9G G10C A29U G42U A43G A46C C94U the figure was -4.04; with G10C C34U A43U C101G G107C, -7.66; with U33G G48U A105C U126G G127C, -6.34.
On to U7G C12A U32A C73U G113A G120U, for which the “polymerase ribozyme fitness (log ratio)” value was -4.58.
With A26G G63U A95U C99U the figure was -5.64.
Turning to C72A U109A, the “polymerase ribozyme fitness (log ratio)” value was -4.06.
